Data published in paper doi:10.1101/2025.09.26.678928.

Target: UhGpe1 (U. hordei)

Row | reporter activity in S. cerevisiae biosensor assays, percent activity [%] | Molecule
1 | 45 | SrPit2 peptide corresponding to the U. maydis activating motif
2 | 30 | WWFGFTGSL [Pit2 core peptide (…)]
